Laboratory results published in patent US20170107258A1 (CANCER RESEARCH TECHNOLOGY, published 2017).
[ ]: non-standard residue; d: D form. βSer = β-serine (lower case s in P1); βArg = β-arginine (lower case r); βLeu = β-leucine (lower case l)

B1: cyclic peptide P1, c(RLsKDK), cyclo(Arg-Leu-{β-Ser}-Lys-Asp-Lys) (peptide)
peptide: cyclo(RL[βSer]KDK)
B2: cyclic peptide P2, c(rLSKDK) (peptide)
peptide: cyclo([βArg]LSKDK)
B3: cyclic peptide P3, c(RlSKDK) (peptide)
peptide: cyclo(R[βLeu]SKDK)

Tests used:
Assay in all cases: cell-based or functional assay
[1] = target: T1, purified recombinant ADAM8
T1 sequence (Q05910 whole entry, species assumed, looked up): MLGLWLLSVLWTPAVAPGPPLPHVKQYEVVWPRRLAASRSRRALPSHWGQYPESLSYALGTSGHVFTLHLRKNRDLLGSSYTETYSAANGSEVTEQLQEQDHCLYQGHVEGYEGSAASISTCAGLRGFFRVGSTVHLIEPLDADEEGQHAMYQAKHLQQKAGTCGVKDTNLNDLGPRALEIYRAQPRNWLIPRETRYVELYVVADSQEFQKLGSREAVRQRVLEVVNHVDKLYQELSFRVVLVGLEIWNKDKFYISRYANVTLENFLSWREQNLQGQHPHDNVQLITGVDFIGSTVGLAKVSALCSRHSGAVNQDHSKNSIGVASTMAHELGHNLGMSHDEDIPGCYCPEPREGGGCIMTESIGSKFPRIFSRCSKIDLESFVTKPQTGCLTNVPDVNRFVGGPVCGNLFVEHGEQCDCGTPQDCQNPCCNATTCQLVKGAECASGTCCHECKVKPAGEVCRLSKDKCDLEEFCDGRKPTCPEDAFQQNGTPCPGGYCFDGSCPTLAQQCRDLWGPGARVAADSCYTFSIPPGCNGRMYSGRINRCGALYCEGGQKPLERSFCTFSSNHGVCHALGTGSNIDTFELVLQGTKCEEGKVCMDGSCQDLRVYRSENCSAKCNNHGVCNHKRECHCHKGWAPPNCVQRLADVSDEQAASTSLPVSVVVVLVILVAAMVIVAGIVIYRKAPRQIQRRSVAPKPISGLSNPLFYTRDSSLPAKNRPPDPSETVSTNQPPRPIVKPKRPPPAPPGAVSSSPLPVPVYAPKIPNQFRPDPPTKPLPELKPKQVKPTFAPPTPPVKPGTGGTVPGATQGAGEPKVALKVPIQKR

[2] = target: T1, purified recombinant ADAM8; remark: listed apart in the source
[3] = target: T1, purified recombinant ADAM8; remark: listed apart in the source

Row | Binder | IC50 of inhibition of ADAM8 catalytic activity [1] [nM] | A8 Inhibition (IC50) [2] [nM] | ADAM inhibition with P1 (IC50; CD23 fluorogenic substrate) [3] [nM]
1 | B1 | ~50 | 100 | 100
2 | B2 | – | > 500 | –
3 | B3 | – | > 500 | –
